Literature values, collected in article PMC6518430.

What was measured:
IL-12Rβ1 (Homo sapiens) = IL-12Rβ1 (Homo sapiens) (UniProt P42701)
IL-23R (Homo sapiens) = IL-23R (Homo sapiens) (UniProt Q5VWK5)
Sequence of IL-23R (Homo sapiens) (Q5VWK5 24-355): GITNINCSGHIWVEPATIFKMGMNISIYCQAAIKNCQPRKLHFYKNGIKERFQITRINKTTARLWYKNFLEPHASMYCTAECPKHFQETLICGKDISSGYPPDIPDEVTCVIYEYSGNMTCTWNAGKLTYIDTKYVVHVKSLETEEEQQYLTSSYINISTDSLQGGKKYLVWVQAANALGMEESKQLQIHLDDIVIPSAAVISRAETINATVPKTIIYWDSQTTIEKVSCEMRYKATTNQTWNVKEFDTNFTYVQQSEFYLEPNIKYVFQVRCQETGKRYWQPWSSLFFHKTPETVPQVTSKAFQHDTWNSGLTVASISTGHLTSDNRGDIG

Sequence of IL-23 (Q9NPF7 20-189): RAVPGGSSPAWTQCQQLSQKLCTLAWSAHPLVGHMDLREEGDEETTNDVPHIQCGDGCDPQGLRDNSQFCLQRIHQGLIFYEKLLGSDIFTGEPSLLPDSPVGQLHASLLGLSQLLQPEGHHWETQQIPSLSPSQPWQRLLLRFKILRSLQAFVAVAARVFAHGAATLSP
Sequence of IL-23 (P29460 23-328, further chain): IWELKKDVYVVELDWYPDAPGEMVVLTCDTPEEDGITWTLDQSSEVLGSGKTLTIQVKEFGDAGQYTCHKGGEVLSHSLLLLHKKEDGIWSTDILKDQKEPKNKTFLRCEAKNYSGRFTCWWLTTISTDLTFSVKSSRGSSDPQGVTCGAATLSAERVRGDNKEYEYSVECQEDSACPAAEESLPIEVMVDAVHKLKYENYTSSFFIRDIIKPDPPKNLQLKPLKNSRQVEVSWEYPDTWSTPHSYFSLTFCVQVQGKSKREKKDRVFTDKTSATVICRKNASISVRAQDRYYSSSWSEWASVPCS

Kd (IL-12Rβ1 (Homo sapiens)): 2000 nM | Kd (IL-23R (Homo sapiens)): 44 nM
Substance: IL-23 (from UniProt Q9NPF7)
